Changes are numbered by the printed parent chain. Where two headings read alike, the source gives them in different places.
What was measured:
Assay in all cases: SPR, scFv captured via anti-V5, RBD as analyte
[1] = biological target: T1, SARS-CoV-2 Receptor Binding Domain (RBD) protein (SARS-CoV-2, UniProt P0DTC2 319-541)
[2] = biological target: SARS-CoV-1 Receptor Binding Domain (RBD) protein (SARS-CoV-1, UniProt P59594 306-527)
[3] = biological target: MERS Receptor Binding Domain (RBD) protein (MERS coronavirus, UniProt K9N5Q8 367-606)
[4] = biological target: T1, SARS-CoV-2 Receptor Binding Domain …; remark: listed apart in the source

B1: COVID19_P20_G06 (scFv, V domains shown)
VH: EVQLVESGGGLVQPGGSLRLSCAASGFTFSNSDMNWVRQAPGKGLEWVSGISGGGAGTYYADSVKGRFTISRDNSKNTLYLQMNSLRAEDTAVYYCVTYRDNSRDYFPHYFHDMDVWGQGTLVTVSS
VL: DIVMTQSPLSLPVTPGEPASISCRSSQSLVHSNGDTYLDWYLQKPGQSPQLLIYLGSIRAPGVPDRFSGSGSGTDFTLKISRVEAEDVGVYYCQQSYSTPWTFGGGTKVEIKR
In the case of B1, the Kd [1] is reported as < 50 nM, the binding result [2] is reported as “no binding (tested: up to 300 nM)” and the binding result [3] is reported as “no binding (tested: up to 300 nM)”. For the same binder, the Kd [4] was 8.95 nM, the koff [4] was 0.000834 s⁻¹ and the kon [4] was 93200 M⁻¹ s⁻¹.

B2: COVID19_P19_E01 (scFv, V domains shown)
VH: EVQLVESGGGLVQPGGSLRLSCAASGFTFSSYAMHWVRQAPGKGLEWVAVVSRSGGSTFYADSVKGRFTISRDNSKNTLYLQMNSLRAEDTAVYYCVTQRDNSRDYFPHYFHDMDVWGQGTLVTVSS
VL: B1 VL
For B2, the Kd [1] was < 50 nM, the binding result [2] was “no binding (tested: up to 300 nM)” and the binding result [3] was “no binding (tested: up to 300 nM)”. The Kd [4] was 41.7 nM, the koff [4] was 0.00644 s⁻¹ and the kon [4] was 155000 M⁻¹ s⁻¹.

B3: COVID19_P19_B09 (scFv, V domains shown)
VH: EVQLVESGGGLVQPGGSLRLSCAASGFTFSSHTIAWVRQAPGKGLEWLSHISSSGSTTYYADSVKGRFTISRDNSKNTLYLQMNSLRAEDTAVYYCVTQRDNSRDMSPHYFHDMDVWGQGTLVTVSS
VL: B1 VL with V30L, H31D, D35F, T36N, I58S, S98N
For B3, the Kd [1] was < 50 nM, the binding result [2] was “no binding (tested: up to 300 nM)” and the binding result [3] was “no binding (tested: up to 300 nM)”. The Kd [4] was 15.9 nM, the koff [4] was 0.00313 s⁻¹ and the kon [4] was 197000 M⁻¹ s⁻¹.

B4: COVID19_P19_C03 (scFv, V domains shown)
VH: B1 VH with G50R, S52N, G54D, A56S, G57T, Y59G, Y99T, R100G
VL: B1 VL with V30L, S98I
With B4 the Kd [1] was < 50 nM, the binding result [2] was “no binding (tested: up to 300 nM)” and the binding result [3] was “no binding (tested: up to 300 nM)”. The Kd [4] was 35.3 nM, the koff [4] was 0.0058 s⁻¹ and the kon [4] was 164000 M⁻¹ s⁻¹.

B5: COVID19_P19_C08 (scFv, V domains shown)
VH: EVQLVESGGGLVQPGGSLRLSCAASGFTFSSYAMHWVRQAPGKGLEWVSAISASSAGAYYADSVKGRFTISRDNSKNTLYLQMNSLRAEDTAVYYCVTNMDNSRDYFPHYFHDMDVWGQGTLVTVSS
VL: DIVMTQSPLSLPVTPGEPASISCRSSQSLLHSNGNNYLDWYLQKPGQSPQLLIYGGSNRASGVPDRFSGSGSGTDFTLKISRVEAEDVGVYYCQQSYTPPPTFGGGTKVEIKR
In the case of B5, the Kd [1] is reported as < 50 nM, the binding result [2] is reported as “no binding (tested: up to 300 nM)” and the binding result [3] is reported as “no binding (tested: up to 300 nM)”. For the same binder, the Kd [4] was 27.6 nM, the koff [4] was 0.0047 s⁻¹ and the kon [4] was 170000 M⁻¹ s⁻¹.

B6: COVID19_P19_C12 (scFv, V domains shown)
VH: B5 VH with S30R, S31N, I51V, A53S, S55G, A56G, G57S, A58P
VL: DIVMTQSPLSLPVTPGEPASISCRSSQSLVHSDGDNYLNWYLQKPGQSPQLLIYSGSYRASGVPDRFSGSGSGTDFTLKISRVEAEDVGVYYCMQGTHWPLTFGGGTKVEIKR
In the case of B6, the Kd [1] is reported as < 50 nM, the binding result [2] is reported as “no binding (tested: up to 300 nM)” and the binding result [3] is reported as “no binding (tested: up to 300 nM)”.

B7: COVID19_P07_F01 (scFv, V domains shown)
VH: B2 VH with A49S, V50A, S52G, R53D, G56R, F59Y, Q99N, R100L
VL: not shown
In the case of B7, the Kd [1] is reported as < 50 nM, the binding result [2] is reported as “no binding (tested: up to 300 nM)” and the binding result [3] is reported as “no binding (tested: up to 300 nM)”. For the same binder, the Kd [4] was 0.8 nM, the koff [4] was 5.7e-05 s⁻¹ and the kon [4] was 68000 M⁻¹ s⁻¹.

B8: COVID19_P08_B11 (scFv, V domains shown)
VH: B5 VH with A33G, V37I, I51V, S55G, A56D, G57R, A58T, Y59H, M100L
VL: DIVMTQSPLSLPVTPGEPASISCRSSQSLLHSNGYNRLAWYLQKPGQSPQLLIYLGSYRASGVPDRFSGSGSGTDFTLKISRVEAEDVGVYYCMQALQTPSFGGGTKVEIKR
In the case of B8, the Kd [1] is reported as < 50 nM, the binding result [2] is reported as “no binding (tested: up to 300 nM)” and the binding result [3] is reported as “no binding (tested: up to 300 nM)”.

B9: COVID19_P20_B01 (scFv, V domains shown)
VH: B2 VH with V51I, R53S, G56R, S57N, T58K, Q99N, R100M
VL: not shown
B9: no binding (tested: up to 300 nM) [2]; no binding (tested: up to 300 nM) [3].

B10: COVID19_P20_F05 (scFv, V domains shown)
VH: B2 VH with S31T, A49S, V50G, R53W, S54N, G56S, S57R, F59H, Q99N, R100M
VL: not shown
B10: no binding (tested: up to 300 nM) [2]; no binding (tested: up to 300 nM) [3].

B11: COVID19_P20_F02 (scFv, V domains shown)
VH: EVQLVESGGGLVQPGGSLRLSCAASGFAFSNYGMHWIRQAPGKGLEWVSGIDGSGGTAHYADSVKGRFTISRDNSKNTLYLQMNSLRAEDTAVYYCVTNMDNSRDYFPHYFHDMDVWGQGTLVTVSS
VL: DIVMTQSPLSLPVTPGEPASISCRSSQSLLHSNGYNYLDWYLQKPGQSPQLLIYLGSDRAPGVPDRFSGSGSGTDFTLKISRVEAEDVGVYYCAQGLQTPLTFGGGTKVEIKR
For B11, the Kd [1] was < 50 nM, the binding result [2] was “no binding (tested: up to 300 nM)” and the binding result [3] was “no binding (tested: up to 300 nM)”. It also gave a Kd [4] of 17.8 nM, a koff [4] of 0.00081 s⁻¹ and a kon [4] of 45500 M⁻¹ s⁻¹.

B12: COVID19_P20_A11 (scFv, V domains shown)
VH: B5 VH with A53G, S55G, A56D, G57N, A58T
VL: not shown
B12 was tested, and the Kd [1] was < 50 nM, the binding result [2] was “no binding (tested: up to 300 nM)” and the binding result [3] was “no binding (tested: up to 300 nM)”. For the same binder, the Kd [4] was 20.2 nM, the koff [4] was 0.000872 s⁻¹ and the kon [4] was 43100 M⁻¹ s⁻¹.

B13: COVID19_P07_F11 (scFv, V domains shown)
VH: B5 VH with A33G, V37I, I51V, S55G, A56D, G57R, A58T, Y59H, M100L
VL: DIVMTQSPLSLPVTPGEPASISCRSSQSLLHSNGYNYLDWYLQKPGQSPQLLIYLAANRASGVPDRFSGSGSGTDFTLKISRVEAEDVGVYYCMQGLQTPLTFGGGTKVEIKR
With B13 the Kd [1] was < 50 nM, the binding result [2] was “no binding (tested: up to 300 nM)” and the binding result [3] was “no binding (tested: up to 300 nM)”.

B14: COVID19_P20_F08 (scFv, V domains shown)
VH: B5 VH with A50V, S55G, A56G, G57N, A58T, M100L
VL: DIVMTQSPLSLPVTPGEPASISCRSSRSLLHTNGLNYIDWYLQKPGQSPQLLIYLGSNRASGVPDRFSGSGSGTDFTLKISRVEAEDVGVYYCTQALQTPISFGGGTKVEIKR
In the case of B14, the Kd [1] is reported as < 50 nM, the binding result [2] is reported as “no binding (tested: up to 300 nM)” and the binding result [3] is reported as “no binding (tested: up to 300 nM)”.

B15: COVID19_P08_C03 (scFv, V domains shown)
VH: B2 VH with V51I, R53S, G56R, S57N, T58K, Q99N, R100L
VL: not shown
With B15 the Kd [1] was < 50 nM, the binding result [2] was “no binding (tested: up to 300 nM)” and the binding result [3] was “no binding (tested: up to 300 nM)”.

B16: COVID19_P08_F07 (scFv, V domains shown)
VH: B11 VH with A28I, S30T, G33A, M34L, I37V, G50A, D52S, T57S, A58T, M100L
VL: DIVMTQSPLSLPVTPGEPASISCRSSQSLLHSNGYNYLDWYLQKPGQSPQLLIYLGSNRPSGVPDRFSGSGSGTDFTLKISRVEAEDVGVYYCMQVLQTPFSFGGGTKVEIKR
B16 was tested, and the Kd [1] was < 50 nM, the binding result [2] was “no binding (tested: up to 300 nM)” and the binding result [3] was “no binding (tested: up to 300 nM)”.

B17: COVID19_P07_G06 (scFv, V domains shown)
VH: EVQLVESGGGLVQPGGSLRLSCAASGFTFSSYAMHWVRQAPGKGLEWVSAIGAGGGTYYADSVKGRFTISRDNSKNTLYLQMNSLRAEDTAVYYCVTNLDNSRDYFPHYFHDMDVWGQGTLVTVSS
VL: B8 VL with R37Y, A39D, L55G, G56A, Y58T, S61T, A96T, S101R
B17 was tested, and the Kd [1] was < 50 nM, the binding result [2] was “no binding (tested: up to 300 nM)” and the binding result [3] was “no binding (tested: up to 300 nM)”. It also gave a Kd [4] of 1.6 nM, a koff [4] of 5.7e-05 s⁻¹ and a kon [4] of 36300 M⁻¹ s⁻¹.

B18: COVID19_P07_D08 (scFv, V domains shown)
VH: B17 VH with S30R, S31N, A53T, G56D, L99M
VL: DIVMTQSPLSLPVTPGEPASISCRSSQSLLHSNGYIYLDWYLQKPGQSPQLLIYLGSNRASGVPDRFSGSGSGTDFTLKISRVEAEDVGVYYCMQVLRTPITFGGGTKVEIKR
B18 was tested, and the binding result [2] was “no binding (tested: up to 300 nM)”, the binding result [3] was “no binding (tested: up to 300 nM)” and the Kd [4] was 1.7 nM. For the same binder, the koff [4] was 5.7e-05 s⁻¹ and the kon [4] was 34100 M⁻¹ s⁻¹.

B19: COVID19_P07_A12 (scFv, V domains shown)
VH: B17 VH with S31N, L99M
VL: B6 VL with V30L, H31Y, N36T, N39D, S55L, Y58N, G96A, T97L, H98Q, W99T
B19: no binding (tested: up to 300 nM) [2]; no binding (tested: up to 300 nM) [3].

B20: COVID19_P08_H09 (scFv, V domains shown)
VH: EVQLVESGGGLVQPGGSLRLSCAASGFTFSDYALHWVRQAPGKGLEWVSGVSWNGSRTHYADSVKGRFTISRDNSKNTLYLQMNSLRAEDTAVYYCVTNMDNSRDYFPHYFHDMDVWGQGTLVTVSS
VL: not shown
With B20 the binding result [2] was “no binding (tested: up to 300 nM)”, the binding result [3] was “no binding (tested: up to 300 nM)” and the Kd [4] was 1.1 nM. For the same binder, the koff [4] was 5.7e-05 s⁻¹ and the kon [4] was 51000 M⁻¹ s⁻¹.

B21: COVID19_P07_D04 (scFv, V domains shown)
VH: EVQLVESGGGLVQPGGSLRLSCAASGFRFSDHPMHWVRQAPGKGLEWVAVITGSGRNKFYADSVKGRFTISRDNSKNTLYLQMNSLRAEDTAVYYCVTNMDNSRDYFPHYFHDMDVWGQGTLVTVSS
VL: DIVMTQSPLSLPVTPGEPASISCRSSQSLLHRNGYNYLDWYLQKPGQSPQLLIYGASTRATGVPDRFSGSGSGTDFTLKISRVEAEDVGVYYCTQSLQTPLTFGGGTKVEIKR
B21 was tested, and the binding result [2] was “no binding (tested: up to 300 nM)”, the binding result [3] was “no binding (tested: up to 300 nM)” and the Kd [4] was 2.3 nM. For the same binder, the koff [4] was 5.7e-05 s⁻¹ and the kon [4] was 24400 M⁻¹ s⁻¹.

— patent US11053304 (CENTIVAX, dated 2021)
